Reference: article PMC6547884, “Molecular Basis for poly(A) RNP Architecture and Recognition by the Pan2-Pan3 Deadenylase” (Cell, 2019)

Key:
[1] = molecular target: the molecule itself; assay: cryo-EM structure; Pan2cat-Pan3 with 90A RNA and three Pab1, reconstituted as for SEC and purified on Superose 6; overall nominal resolution 4.8 Å, focused maps 4.7 and 4.5 Å
[2] = molecular target: T1, Ccr4(110-837)-Caf1(146-433) complex (S. cerevisiae, UniProt P31384 110-837; P39008 146-433); assay: SEC; reconstitution: purified Not1(754-1000) mixed with Ccr4(110-837)-Caf1(146-433) in equimolar amounts; Superdex200 16/60, 20 mM Tris pH 7.5, 250 mM NaCl, 1 mM DTT; conditions: both partners purified
T1 construct: The complex is His-tagged; also called core yeast Ccr4-Caf1 nucleases; source: Trichoplusia ni Hi5 insect cells (pFastBac DUAL), purified (IMAC, heparin, SEC)
T1 sequence (looked up) 1: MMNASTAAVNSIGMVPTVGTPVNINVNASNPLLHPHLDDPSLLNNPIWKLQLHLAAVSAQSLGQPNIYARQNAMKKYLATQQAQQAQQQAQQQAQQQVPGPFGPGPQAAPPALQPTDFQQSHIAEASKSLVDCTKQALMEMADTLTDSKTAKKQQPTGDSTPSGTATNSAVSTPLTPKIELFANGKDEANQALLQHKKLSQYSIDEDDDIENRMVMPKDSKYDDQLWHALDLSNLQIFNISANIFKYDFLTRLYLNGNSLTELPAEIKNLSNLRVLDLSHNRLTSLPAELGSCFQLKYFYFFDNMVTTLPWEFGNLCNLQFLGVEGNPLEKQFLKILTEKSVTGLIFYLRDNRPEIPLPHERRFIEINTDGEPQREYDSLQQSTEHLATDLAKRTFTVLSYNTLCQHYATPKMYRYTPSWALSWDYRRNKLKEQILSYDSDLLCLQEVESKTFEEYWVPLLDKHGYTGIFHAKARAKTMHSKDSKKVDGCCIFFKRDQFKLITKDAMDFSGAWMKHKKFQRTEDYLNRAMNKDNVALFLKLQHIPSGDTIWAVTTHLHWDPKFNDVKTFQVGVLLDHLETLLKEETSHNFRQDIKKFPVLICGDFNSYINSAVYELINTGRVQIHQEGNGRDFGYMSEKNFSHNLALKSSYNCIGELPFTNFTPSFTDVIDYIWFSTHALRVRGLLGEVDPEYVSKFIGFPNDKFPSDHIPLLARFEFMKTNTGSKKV
T1 sequence (looked up) 2: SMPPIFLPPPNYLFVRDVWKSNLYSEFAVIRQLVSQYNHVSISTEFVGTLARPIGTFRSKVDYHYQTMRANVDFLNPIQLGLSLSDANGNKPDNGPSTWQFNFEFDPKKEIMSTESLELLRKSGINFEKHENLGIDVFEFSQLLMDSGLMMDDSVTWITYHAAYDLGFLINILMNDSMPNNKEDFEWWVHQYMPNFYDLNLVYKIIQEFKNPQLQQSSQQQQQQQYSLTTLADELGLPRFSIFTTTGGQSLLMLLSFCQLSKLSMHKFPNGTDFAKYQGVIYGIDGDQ

[3] = molecular target: the molecule itself; assay: cryo-EM structure; substrate-free Pan2cat-Pan3Δ(1-162); Volta phase plate; nominal global resolution about 4.5 Å

B1: Pan3 (S. cerevisiae, C-terminal deca-histidine tag) (natural protein, UniProt P36102 1-679, looked up)
chain: MDKINPDWAKDIPCRNITIYGYCKKEKEGCPFKHSDNTTATTINDVPPPIDVGEATTPTMTSVPKFNAKVSASFTPMTVGSDSLTTVTNTTSAATNATGNIAMAATSATASTVNPMINPIVNSSLVNNNNNNSNISISIPTTASSSNYDPFNAPIFTPSSTSSIHTNANAHSFPFPSIANSGGININATDDNSNNMSMANNVPPPMQPPPIESSNLKYPRIYPPPHSLLQYHLYAPEQPSSLKSLLKPNERSADQLFIPNNIREDLTKKNLSILQVFPSSGKVIPSIVQDYFNLVPLNFNNNDFLNKTTLFKVFSNYDGKAYVLKRLPNIDKSMNPNKISKIYQIWSKINCTNLIKFRDIFQTTKFGDLSICLVFDYYPNSLSLYDYHFVNFPKFPITNNYLWIYLVQLTNVINSIHSQNLSIGNTLNWRKVLITGDPGRIKLSHCNFMDLLFNDDTDTVVSSGGSTIEGQQQLDYKYLGELLFNLSINIENSNNNTAPKEYRLEEITPQSIDDMRQIDDKFKDVLKYLISDNGDSKKSIHDLTSHFYDKMFMVLESSQTYTEYMESVLSRELENGRLFRLVNKLNCIFGRIESRIDINWSESGTKFPIILFYDYVFHQVDSNGKPIMDLTHVLRCLNKLDAGIQEKLMLVTPDELNCIIISYKELKDLIESTFRSITQ
notes: Pan3, S. cerevisiae; The Pan3 chain of m1, written alone for the pairs that touch in the structure and for co-purification; also called Pan3straight; Pan3bent; source: Trichoplusia ni Hi5 insect cells, co-expressed with Pan2, purified as a complex; not shown: His10, C-terminal, kept
stoichiometry N [1]: 2

B2: Not1(754-1000) (domain or fragment, S. cerevisiae, UniProt P25655 754-1000, looked up)
chain: RSRPVQEMIPLKFFAVDEVSCQINQEGAPKDVVEKVLFVLNNVTLANLNNKVDELKKSLTPNYFSWFSTYLVTQRAKTEPNYHDLYSKVIVAMGSGLLHQFMVNVTLRQLFVLLSTKDEQAIDKKHLKNLASWLGCITLALNKPIKHKNIAFREMLIEAYKENRLEIVVPFVTKILQRASESKIFKPPNPWTVGILKLLIELNEKANWKLSLTFEVEVLLKSFNLTTKSLKPSNFINTPEVIETLSG
notes: source: E. coli BL21 DE3, purified (IMAC, tag cleavage, heparin, SEC); not shown: SUMO, N-terminal, cleaved; His tag, N-terminal, cleaved
binding result [2]: binds

B3: Pan3Δ(1-162) (domain or fragment, S. cerevisiae, UniProt P36102 163-679, looked up)
chain: SIHTNANAHSFPFPSIANSGGININATDDNSNNMSMANNVPPPMQPPPIESSNLKYPRIYPPPHSLLQYHLYAPEQPSSLKSLLKPNERSADQLFIPNNIREDLTKKNLSILQVFPSSGKVIPSIVQDYFNLVPLNFNNNDFLNKTTLFKVFSNYDGKAYVLKRLPNIDKSMNPNKISKIYQIWSKINCTNLIKFRDIFQTTKFGDLSICLVFDYYPNSLSLYDYHFVNFPKFPITNNYLWIYLVQLTNVINSIHSQNLSIGNTLNWRKVLITGDPGRIKLSHCNFMDLLFNDDTDTVVSSGGSTIEGQQQLDYKYLGELLFNLSINIENSNNNTAPKEYRLEEITPQSIDDMRQIDDKFKDVLKYLISDNGDSKKSIHDLTSHFYDKMFMVLESSQTYTEYMESVLSRELENGRLFRLVNKLNCIFGRIESRIDINWSESGTKFPIILFYDYVFHQVDSNGKPIMDLTHVLRCLNKLDAGIQEKLMLVTPDELNCIIISYKELKDLIESTFRSITQ
notes: Pan3, S. cerevisiae, lacking residues 1-162; Pan3 chain of the substrate-free Pan2cat-Pan3Δ(1-162) cryo-EM sample; also called Pan3ΔN; source: Trichoplusia ni Hi5 insect cells, co-expressed with Pan2cat, purified as a complex
stoichiometry N [3]: 2
